Experimental data from patent US20240150440A1 (LUMEN BIOSCIENCE, published 2024).

What was measured:
[1] = target: T1, SARS-CoV-2 Alpha Variant RBD (SARS-CoV-2 Alpha variant); experiment: ELISA, RBD coated
T1 construct: domain: RBD; coated on ELISA plates

[2] = target: T2, SARS-CoV-2 Beta Variant RBD (SARS-CoV-2 Beta variant); experiment: ELISA, RBD coated
T2 construct: domain: RBD; coated on ELISA plates

[3] = target: T3, SARS-CoV-2 Gamma Variant RBD (SARS-CoV-2 Gamma variant); experiment: ELISA, RBD coated
T3 construct: domain: RBD; coated on ELISA plates

[4] = target: SARS-CoV-2 spike protein on pseudotyped lentivirus (Wuhan Reference Pseudovirus) (SARS-CoV-2, UniProt P0DTC2 14-1273); experiment: cell-based or functional assay

B1: PP914 MBP-5HVZ-S3a-H1-H6 (VHH)
VHH: QVQLVESGGGLVQPGGSLRLSCAASGGIYSPYSMHWFRQAPGKAREWVAGIVGGGGTTYSDSVKGRFTISRDNAKNTVYLQMNSLKPEDTAVYYCNANYQEYDEYDYWGQGTQVTVSS
notes: Form: Dimer
For B1, the EC50 [1] was 2.94 nM, the EC50 [2] was 19.4 nM and the EC50 [3] was 10.5 nM.

B2: PP910 MBP-5HVZ-S2b-C10-H6 (VHH)
VHH: QVQLVESGGGLVQPGGSLRLSCAASGSAFSLNYMAWFRQAPGKQREGVAIIGSGGSSDYADSVKGRFTISRDNAKNTVYLQMNSLKPEDTAVYYCAAQPNGSPDDFDYWGQGTQVTVSS
notes: Form: Dimer
With B2 the “infectivity % under 10 ug/mL VHH treatment” value (“infectivity %” for short) [4] was 65.1%.

B3: PP922 MBP-R5a-F5-H6 (VHH)
VHH: QVQLVESGGGLVQPGGSLRLSCAASGYHASILAMHWVRQAPGKEREWVASMTWSDMTQYSDSVKGRFTISRDNAKNTVYLQMNSLKPEDTAVYYCAATYVTRDRPWTHWGQGTQVTVSS
notes: Form: Monomer
For B3, the “infectivity %” value [4] was 67.7%.

B4: PP1177 MPB-scTRP-PAPA-R2a-F3-H6 (VHH)
VHH: QVQLVESGGGLVQPGGSLRLSCAASGSITSINWMHWFRQAPGKDREGVASISQTGRGSYADSVKGRFTISRDNAKNTVYLQMNSLKPEDTAVYYCAAASRTGTPYNYWGQGTQVTVSS
notes: Form: Trimer
For B4, the “infectivity %” value [4] was 51.1%.

B5: PP888 MBP-S1b-E11-H6 (VHH)
VHH: QVQLVESGGGLVQPGGSLRLSCAASGSYASIASMHWFRQAPGKEREFVAGVTSGGSTNYGDSVKGRFTISRDNAKNTVYLQMNSLKPEDTAVYYCNALAGANYESQWEEYNYWGQGTQVTVSS
notes: Form: Monomer
In the case of B5, the “infectivity %” value [4] is reported as 80%.

B6: PP880 MBP-R5a-B5-H6 (VHH)
VHH: QVQLVESGGGLVQPGGSLRLSCAASGDDFIENAISWYRQAPGKGREWVAAVTLGGHSNYADSVKGRFTISRDNAKNTVYLQMNSLKPEDTAVYYCNYPVGIPAVAIDGRRSYGYWGQGTQVTVSS
notes: Form: Monomer
For B6, the “infectivity %” value [4] was 58%.

B7: PP883 MBP-R1e-D4-H6 (VHH)
VHH: QVQLVESGGGLVQPGGSLRLSCAASGSIREINAMHWVRQAPGKGRELVASIDSGSLDYYADSVKGRFTISRDNAKNTVYLQMNSLKPEDTAVYYCAASRSGDYRYWGQGTQVTVSS
notes: Form: Monomer
For B7, the “infectivity %” value [4] was 94.3%.

B8: PP902 MBP-5HVZ-R1e-D4-H6 (VHH)
VHH: QVQLVESGGGLVQPGGSLRLSCAASGSIREINAMHWVRQAPGKGRELVASIDSGSLDYYADSVKGRFTISRDNAKNTVYLQMNSLKPEDTAVYYCAASRSGDYRYWGQGTQVTVSS
notes: Form: Dimer
With B8 the “infectivity %” value [4] was 72.4%, the EC50 [1] was 123 nM and the EC50 [3] was 451 nM.

B9: PP788 (VHH, not shown: large carriers; small tags and cut ends)
VHH: QVQLVESGGGLVQPGGSLRLSCAASGSIESINAIHWFRQAPGKAREEVAAITENDVDYYADSVKGRFTISRDNAKNTVYLQMNSLKPEDTAVYYCASLSSGYQYVGFRYWGQGTQVTVSS
For B9, the EC50 [1] was 5.88 nM, the EC50 [2] was 27.6 nM and the EC50 [3] was 16.8 nM.

B10: PP916 MBP-5HVZ-S3b-A8-H6 (VHH)
VHH: QVQLVESGGGLVQPGGSLRLSCAASGSIISRVKVHWFRQAPGKSREWVAGIDSGTASYYSDSVKGRFTISRDNAKNTVYLQMNSLKPEDTAVYYCAAENRGYGVDWGQGTQVTVSS
notes: Form: Dimer
Work on B10 yielded an EC50 [1] of 2.04 nM, an EC50 [2] of 66.3 nM and an EC50 [3] of 42.9 nM.

B11: PP806 MBP-R2B-E6-H6 (VHH)
VHH: QVQLVESGGGLVQPGGSLRLSCAASGGVTRGNAMAWYRQAPGKQREIVAAIDNGGSHAYGDSVKGRFTISRDNAKNTVYLQMNSLKPEDTAVYYCAVFPDHDSEQASIDRVYWGQGTQVTVSS
notes: Form: Monomer
With B11 the “infectivity %” value [4] was 86.5%.

B12: PP885 MBP-R5b-C5-H6 (VHH)
VHH: QVQLVESGGGLVQPGGSLRLSCAASGSPFKTQTVHWFRQAPGKGREWVASITSGSGTQYMDSVKGRFTISRDNAKNTVYLQMNSLKPEDTAVYYCAAANDGYGVDWGQGTQVTVSS
notes: Form: Monomer
In the case of B12, the “infectivity %” value [4] is reported as 101%.

B13: PP904 MBP-5HVZ-R5b-C5-H6 (VHH)
VHH: QVQLVESGGGLVQPGGSLRLSCAASGSPFKTQTVHWFRQAPGKGREWVASITSGSGTQYMDSVKGRFTISRDNAKNTVYLQMNSLKPEDTAVYYCAAANDGYGVDWGQGTQVTVSS
notes: Form: Dimer
Binder B13 has an EC50 [1] of 13 nM, an EC50 [2] of 139 nM and an EC50 [3] of 34.6 nM.

B14: PP886 MBP-S1a-C4-H6 (VHH)
VHH: QVQLVESGGGLVQPGGSLRLSCAASGSRDSINTAHWYRQAPGKAREWVASLDNSTTGSYADSVKGRFTISRDNAKNTVYLQMNSLKPEDTAVYYCAAVTGTPGGLGFYDYWGQGTQVTVSS
In the case of B14, the “infectivity %” value [4] is reported as 84.8%.

B15: PP905 MBP-5HVZ-S1a-C4-H6 (VHH)
VHH: QVQLVESGGGLVQPGGSLRLSCAASGSRDSINTAHWYRQAPGKAREWVASLDNSTTGSYADSVKGRFTISRDNAKNTVYLQMNSLKPEDTAVYYCAAVTGTPGGLGFYDYWGQGTQVTVSS
notes: Form: Dimer
For B15, the “infectivity %” value [4] was 75.7% and the EC50 [1] was 447 nM.

B16: PP881 MBP-R5a-F2-H6 (VHH)
VHH: QVQLVESGGGLVQPGGSLRLSCAASGSISSIEAMSWFRQAPGKQREGVATMASGGDTSYADSVKGRFTISRDNAKNTVYLQMNSLKPEDTAVYYCAAQTYRPDTWGRYTFWGQGTQVTVSS
notes: Form: Monomer
B16 was tested, and the “infectivity %” value [4] was 83.2%.

B17: PP887 MBP-S1b-E7-H6 (VHH)
VHH: QVQLVESGGGLVQPGGSLRLSCAASGGEFSDNGLHWFRQAPGKQREFVATASSDGSTQYRDSVKGRFTISRDNAKNTVYLQMNSLKPEDTAVYYCTALLMSSAGEYDVWGQGTQVTVSS
notes: Form: Monomer
B17 was tested, and the “infectivity %” value [4] was 85.7%.

B18: PP901 MBP-5HVZ-R1e-B2-H6 (VHH)
VHH: QVQLVESGGGLVQPGGSLRLSCAASGQITAENYMHWYRQAPGKQREWVAAITTGGSTLYADSVKGRFTISRDNAKNTVYLQMNSLKPEDTAVYYCNADRSYFPDYWGQGTQVTVSS
notes: Form: Dimer
B18 was tested, and the “infectivity %” value [4] was 72.1%.

B19: PP1141 MBP-4B0F-PAPA-R5d-D4-H6 (VHH)
VHH: QVQLVESGGGLVQPGGSLRLSCAASGSDFTINAMHWFRQAPGKQREFVATITSTSSTAYRDSVKGRFTISRDNAKNTVYLQMNSLKPEDTAVYYCAAFAVRDADTAGWTARDYWGQGTQVTVSS
notes: Form: Heptamer
With B19 the “infectivity %” value [4] was 73.1%.

B20: PP928 MBP-5HVZ-R1i-E7-H6 (VHH)
VHH: QVQLVESGGGLVQPGGSLRLSCAASGTEYDISAAHWYRQAPGKQREWVAGVTSDNSTFYADSVKGRFTISRDNAKNTVYLQMNSLKPEDTAVYYCTATVKTSQYRYWGQGTQVTVSS
With B20 the “infectivity %” value [4] was 78.5%.

B21: PP884 MBP-R1i-A11-H6 (VHH)
VHH: QVQLVESGGGLVQPGGSLRLSCAASGSILQINAIHWFRQAPGKQREEVAAITSGGSTGYADSVKGRFTISRDNAKNTVYLQMNSLKPEDTAVYYCAATSTRGGLDSDYWGQGTQVTVSS
notes: Form: Monomer
For B21, the “infectivity %” value [4] was 91.3%.

B22: PP823 MBP-R5B-C3-H6 (VHH)
VHH: QVQLVESGGGLVQPGGSLRLSCAASGGISVANVMHWFRQAPGKEREGVAGLTSEGSRYYADSVKGRFTISRDNAKNTVYLQMNSLKPEDTAVYYCAAEPTGNTHEFEYWGQGTQVTVSS
B22 was tested, and the “infectivity %” value [4] was 65.5%.

B23: PP913 MBP-5HVZ-S3a-C5-H6 (VHH)
VHH: QVQLVESGGGLVQPGGSLRLSCAASGSIKNTNAMHWFRQAPGKDREWVAGITSGGNSNYGDSVKGRFTISRDNAKNTVYLQMNSLKPEDTAVYYCAAFGYRYDQDYTYDYWGQGTQVTVSS
notes: Form: Dimer
Work on B23 yielded an EC50 [1] of 1.33 nM, an EC50 [2] of 114 nM and an EC50 [3] of 61.1 nM.
